According to the RNAGym collection of RNA variant scans (doi:10.1073/pnas.2313332121):

B1: TPR t1 (parent)
chain: GACCAAUCUGCCCUCAGAGCUCGAGAACAUCUUCGGAUGCAGAGGAGGCAGGCUUCGGUGGCGCGAUAGCGCCAACGUCCUCAACCUCCAAUGCAUCCCACCACAUGAUGAUGCCUGAAGAGCCUUGGUUUUUUG

Variants of: B1
Test: polymerase ribozyme fitness, log enrichment relative to wild type (log ratio); higher = more active; in vitro selection for triplet polymerase activity
Procedure, shortened: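 A single round of triplicate in vitro selection, including frozen incubation at −7 °C, was applied to PCR-built, transcribed mutant libraries of each subunit of a heterodimeric triplet polymerase ribozyme. Illumina sequencing of input and output libraries retained genotypes with ≥10 input reads and ≥1 read per output. Fitness is the base-2 logarithm of genotype enrichment divided by wild-type enrichment, from inverse-variance-weighted replicate averages.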

| Variant | polymerase ribozyme fitness (log ratio) |
| --- | --- |
| C34A G120C | -1.97 |
| C34G C40U G113A C124A | -7.14 |
| C34U A90U | -4.66 |
| C34A G58A C89U A121G | -2.92 |
| C34U G60A C124A | -3.3 |
| C34U G52U | -5.84 |
| C34A G63A | -4.65 |
| C34A G44U G71A C114A | -6.89 |
| C34U C102U | -2.22 |
| C34U A41G C53U | -4.95 |
| C34A G71A | -3.26 |
| C34A G71C | -4.06 |
| C34G C72A | -6.05 |
| C34G G45C G69A A90U U92A G113A | -7.28 |
| C34A G48U G93C | -4.96 |
| C34U G60A | -5.21 |
| C34U G60U | -3.24 |
| C34U G71U | -3.99 |
| C34U A46U C56G C72U G120C | -5.35 |
| C34U G61C C94U C98U G120U G127U | -5.79 |
| C34G G35C G63U A111U | -5.76 |

| Variant | polymerase ribozyme fitness (log ratio) |
| --- | --- |
| C34G A46G A91C | -8.04 |
| C34U G61U | -3.87 |
| C34U G61C | -4.48 |
| C34G C123U | -5.16 |
| C34G C123A | -6.76 |
| C34G C123G | -4.46 |
| C34G A50G | -6.59 |
| C34A U59A C70U | -5.58 |
| C34A G44C G60U A121G | -2.34 |
| C34G U112A U130C | -6.03 |
| C34U A100C | -3.69 |
| C34G G61A | -5.85 |
| C34A G39U C98A | -3.78 |
| C34G A68C G113U U126A U133C | -5.64 |
| C34U C73A C102U C123A | -3.14 |
| C34G G120U | -4.75 |
| C34U C64U G113U | -5.9 |
| C34G G36A C49A C86U C124A | -6.09 |
| C34U C88G C123G | -3.83 |
| C34G G44A A90G C101U A121U | -5.28 |
| C34A G45A C86A | -5.49 |

| Variant | polymerase ribozyme fitness (log ratio) |
| --- | --- |
| C34G C72G U96C A103U C124A | -7.14 |
| C34A U87A | -3.34 |
| C34A G110A | -5.44 |
| C34A G36C G45C U112G | -5.74 |
| C34U C56A C82A A83U C97A A121U | -5.4 |
| C34A U54G C56A | -4.3 |
| C34U G51U G61A C114U | -6.98 |
| C34A G42C A121C | -4.79 |
| C34A G69U G135U | -0.532 |
| C34G A41C A100C A103C U112A | -6.4 |
| C34A G58C G63U | -4.79 |
| C34A C114A | -4.47 |
| C34A G117A | -3.53 |
| C34A G117C | -4.31 |
| C34A G45C U59A C98G | -3.73 |
| C34G A50G C70G A74U A83C G110U U112G G120C | -6.67 |
| C34G A95G U109G G117C | -6.44 |
| C34G C97U C123A | -6.44 |
| C34G G35U G60C G127C | -7.24 |
| C34U C56G | -4.5 |
| C34U C104U U112C | -2.1 |

| Variant | polymerase ribozyme fitness (log ratio) |
| --- | --- |
| C34G C56A U106C | -6 |
| C34A G63U G120A | -4.37 |
| C34U C72U | -4.07 |
| C34U C123G | -1.94 |
| C34G C53U G61U C73U G113C C114G | -8.49 |
| C34A U59A | -2.58 |
| C34G G57C C72A A100C | -4.64 |
| C34U G58A C97U C123G | -5.6 |
| C34U C86U | -5.16 |
| C34G C94U | -6.86 |
| C34A G57A C72U G93A | -5.18 |
| C34G C64A U116C G117U | -7.25 |
| C34A G120C U130G | -3.21 |
| C34G G48A G52C A84U G120A | -6.12 |
| C34U G52A G71U | -4.6 |
| C34A C88U | -2.2 |
| C34U C62G | -6.83 |
| C34U C40U U54C | -4.99 |
| C34G C73G U116A A121U | -5.9 |
| C34G G39C G120U | -6.09 |
| C34U G65C G117C A121C | -7.56 |
